{
  "source": "paper PMC5011719",
  "about": "“The amyloid fold of Gad m 1 epitopes governs IgE binding” (Scientific Reports, 2016)",
  "target": "the molecule itself",
  "experiment": "AFM + dynamic light scattering; fibril dimensions from AFM images (2 nm height, 15 nm diameter, average length 350 nm) and the RH of the monomer from DLS; geometrical calculation",
  "data": [
    {"protein": "rGad m 1 wt (recombinant Gad m 1, Atlantic cod beta-parvalbumin) (natural protein, UniProt A5I874 1-109, looked up, Gad m 1, Atlantic cod beta-parvalbumin; synthetic ORF in pET15b; Monomer in Ca2+, forms amyloids in EDTA; also called rGad wt; not shown: 6XHis, N-terminal, kept) MAFAGILNDADITAALAACKAEGSFDHKAFFTKVGLAAKSSADIKKVFEIIDQDKSDFVEEDELKLFLQNFSAGARALSDAETKVFLKAGDSDGDGKIGVDEFGAMIKA", "values": [
      {"measurement": "stoichiometry N", "result": 370}
    ]}
  ]
}
